For this test, the target named is T1, human C1q (human, UniProt P02745 23-245; P02746 28-253; P02747 29-245).
T1 construct: The assay used recombinant human C1q (Abd Serotec, 0.2 ug/ml) or C1q from natural human complement (Sigma); It was detected with sheep anti-human C1q-peroxidase on plates coated with the MAb; also called recombinant human C1q; human complement
The test is described as follows: ELISA, C1q on coated MAb.

Here are results for 2 molecules from US20130224190A1 (INTERNATIONAL DRUG DEVELOPMENT BIOTECH, published 2013).

T1 sequence (P02745 23-245 limits assumed, chain 1 of 3): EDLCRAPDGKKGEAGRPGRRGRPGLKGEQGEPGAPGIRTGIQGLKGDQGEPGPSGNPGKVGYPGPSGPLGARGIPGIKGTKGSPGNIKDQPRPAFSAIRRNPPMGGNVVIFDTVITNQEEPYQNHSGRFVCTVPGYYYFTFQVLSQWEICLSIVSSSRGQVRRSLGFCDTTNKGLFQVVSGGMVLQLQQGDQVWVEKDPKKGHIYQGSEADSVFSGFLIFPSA
T1 sequence (P02746 28-253 limits assumed, chain 2 of 3): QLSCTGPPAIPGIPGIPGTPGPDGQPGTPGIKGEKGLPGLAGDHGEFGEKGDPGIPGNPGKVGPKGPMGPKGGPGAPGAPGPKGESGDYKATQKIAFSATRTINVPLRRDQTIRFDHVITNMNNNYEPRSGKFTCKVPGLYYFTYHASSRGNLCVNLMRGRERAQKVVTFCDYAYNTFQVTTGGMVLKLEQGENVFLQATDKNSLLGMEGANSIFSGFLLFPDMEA
T1 sequence (P02747 29-245 limits assumed, chain 3 of 3): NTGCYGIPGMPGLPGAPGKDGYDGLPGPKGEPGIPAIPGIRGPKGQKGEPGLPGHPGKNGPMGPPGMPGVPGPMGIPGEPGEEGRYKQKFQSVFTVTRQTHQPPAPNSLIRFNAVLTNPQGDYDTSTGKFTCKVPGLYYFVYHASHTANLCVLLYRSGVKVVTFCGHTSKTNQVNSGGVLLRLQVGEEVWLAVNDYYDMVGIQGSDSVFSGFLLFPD
Protocol: The binding of human recombinant C1q was assessed by an ELISA binding assay. […] Data represent mean+/−SD of two independent experiments.
Complement binding assay: The binding of human C1q to MAbs was assessed by an ELISA binding assay. The 96-well plates (Nunc) were coated overnight at 4° C. with varying MAb concentrations. After washing, the plates were blocked with PBS-5% BSA for 1 h, and incubated for 1 h with 0.2 μg/ml of recombinant human C1q (Abd Serotec) or 2.5 μl of natural human complement (Sigma). Then, 100 μl of a 1/500 dilution of sheep anti-human C1q peroxidase-conjugated Ab (Abd Serotec) added and incubated for 1 h. The plates were developed with 100 μl per well of TMB substrate (Uptima Interchim). After H₂S0₄ addition, the OD was measured at 450 nm/630 nm using a MRX II microplate reader.

B1: chR005-1 Fc24 (antibody)
heavy: QVQLQQSGAELVRPGSSVKISCKASGYAFSSYWVNWMKQRPGQGLEWIGQIYPGDGDTNYNGKFKGRATVTADKSSSTSYMQFSSLTSEDSAVYFCARSITTVVGCAMDYWGQGTSVTVSSASTKGPSVFPLAPSSKSTSGGTAALGCLVKDYFPEPVTVSWNSGALTSGVHTFPAVLQSSGLYSLSSVVTVPSSSLGTQTYICNVNHKPSNTKVDKKVEPKSCDKTHTCPPCPAPELLGGPSVFLLPPKPKDTLMISRTPEVTCVVVDVSHEDPEVKFNWYVDGVEVHNAKTKPPEEQYNSTLRVVSLLTVLHQDWLNGKEYKCKVSNAALPAPIAKTISKAKGQPREPQVYTLPPSRDELTKNQVSLTCLVKGFYPSDIAVEWESNGQPENNYKTTPLVLDSDGSFFLYSKLTVDKSRWQQGNVFSCSVMHEALHNHYTQKSLSLSPGK
light: DIQMTQSSAYLSVSLGGRVTITCKASDHINNWLAWYQHKPGNAPRLLISGATTLETGVPSRFSGSGSGKDYTLSITSLQTEDVATYYCQQSWNTPWTFGGGTK
notes: Chimeric human IgG1 with variant Fc24 (F243L/R292P/Y300L/V305L/K326A/E333A/P396L against Fc0); also called chR005-1 Fc24 MAb; Fc24 optimized chR005-1 MAb; not shown: human light chain constant region
Regarding B1, the binding result was “binds”.

B2: chR005-1 Fc34 (antibody)
heavy: QVQLQQSGAELVRPGSSVKISCKASGYAFSSYWVNWMKQRPGQGLEWIGQIYPGDGDTNYNGKFKGRATVTADKSSSTSYMQFSSLTSEDSAVYFCARSITTVVGCAMDYWGQGTSVTVSSASTKGPSVFPLAPSSKSTSGGTAALGCLVKDYFPEPVTVSWNSGALTSGVHTFPAVLQSSGLYSLSSVVTVPSSSLGTQTYICNVNHKPSNTKVDKKVEPKSCDKTHTCPPCPAPELLGGPSVFLLPPKPKDTLMISRTPEVTCVVVDVSHEDPEVKFNWYVDGVEVHNAKTKPPEEQYNSTLRVVSLLTVLHQDWLNGKEYKCKVSNAALPAPIEKTISKAKGQPREPQVYTLPPSRDELTKNQVSLTCLVKGFYPSDIAVEWESNGQPENNYKTTPLVLDSDGSFFLYSKLTVDKSRWQQGNVFSCSVMHEALHNHYTQKSLSLSPGK
light: DIQMTQSSAYLSVSLGGRVTITCKASDHINNWLAWYQHKPGNAPRLLISGATTLETGVPSRFSGSGSGKDYTLSITSLQTEDVATYYCQQSWNTPWTFGGGTK
notes: Chimeric human IgG1 with variant Fc34 (F243L/R292P/Y300L/V305L/K326A/P396L against Fc0); also called chR005-1 Fc34 MAb; Fc34 LPLLAL; not shown: human light chain constant region
For the molecule B2, the binding result was “binds”.
